In paper PMC5579567:

Key:
[1] = biological target: SgcE10, chymotrypsin digested (crystallised form) (Streptomyces globisporus); test: crystal structure
[2] = biological target: SgcE10, thioesterase (TE) of the 9-membered enediyne C-1027 biosynthetic machinery (Streptomyces globisporus); test: SEC

Substance: SgcE10, chymotrypsin digested (crystallised form) (enzyme)
- stoichiometry N [1]: 4

Substance: SgcE10, thioesterase (TE) of the 9-membered enediyne C-1027 biosynthetic machinery (enzyme)
- stoichiometry N [2]: 4
